Publication PMC4137731, “C-Terminal Domain Swapping of SSB Changes the Size of the ssDNA Binding Site”

B1: dT60 (ssDNA)
DNA: TTTTTTTTTTTTTTTTTTTTTTTTTTTTTTTTTTTTTTTTTTTTTTTTTTTTTTTTTTTT
B2: dT55 (ssDNA)
DNA: TTTTTTTTTTTTTTTTTTTTTTTTTTTTTTTTTTTTTTTTTTTTTTTTTTTTTTT

Columns and labels:
Conditions in all cases: protein: recombinant; tags: none (untagged); chain copies: 4; label: 5' 32P
KpSSBnStSSBc [1] = molecular target: T1, KpSSBnStSSBc (Klebsiella pneumoniae subsp. pneumoniae …, UniProt A6TGW7 1-91+P0A2F6:92-176, internal_change); assay: EMSA; monomer conc.; 1 complex; 20 mM Tris-HCl pH 8.0, 100 mM NaCl, 25°C 30 min, 1.7 nM DNA, protein 0-5000 nM; native 8% PAGE in TBE at 4°C
KpSSBnPaSSBc [2] = molecular target: T2, KpSSBnPaSSBc (Klebsiella pneumoniae subsp. pneumoniae …, UniProt A6TGW7 1-91+P40947:91-165, internal_change); assay: as above
KpSSBnStSSBc [3] = molecular target: T1, KpSSBnStSSBc; assay: EMSA; monomer conc.; 2 complexes; 20 mM Tris-HCl pH 8.0, 100 mM NaCl, 25°C 30 min, 1.7 nM DNA, protein 0-5000 nM; native 8% PAGE in TBE at 4°C
KpSSBnPaSSBc [4] = molecular target: T2, KpSSBnPaSSBc; assay: EMSA; no complex observed up to 5000 nM; 20 mM Tris-HCl pH 8.0, 100 mM NaCl, 25°C 30 min, 1.7 nM DNA, protein 0-5000 nM; native 8% PAGE in TBE at 4°C
KpSSBnPaSSBc [5] = molecular target: T2, KpSSBnPaSSBc; assay: EMSA; monomer conc.; 2 complexes; 20 mM Tris-HCl pH 8.0, 100 mM NaCl, 25°C 30 min, 1.7 nM DNA, protein 0-5000 nM; native 8% PAGE in TBE at 4°C

| Binder | apparent K (half saturation) (KpSSBnStSSBc [1]) [nM] | apparent K (half saturation) (KpSSBnPaSSBc [2]) [nM] | further results |
| --- | --- | --- | --- |
| TTTTTTTTTTTTTTTTTTTTTTTTTTTTTTTTTTTTTTTT (ssDNA) [dT40] | 120 ± 20 | 220 ± 30 |  |
| TTTTTTTTTTTTTTTTTTTTTTTTTTTTTTTTTTTTTTTTTTTTT (ssDNA) [dT45] |  |  | apparent K (half saturation) (KpSSBnStSSBc [3]): 160 ± 20 nM |
| TTTTTTTTTTTTTTTTTTTTTTTTT (ssDNA) [dT25] |  | 390 ± 60 |  |
| TTTTTTTTTTTTTTT (ssDNA) [dT15] | 260 ± 60 |  |  |
| TTTTTTTTTTTTTTTTTTTT (ssDNA) [dT20] | 110 ± 20 |  | binding result (KpSSBnPaSSBc [4]): no binding |
| B1 |  |  | apparent K (half saturation) (KpSSBnPaSSBc [5]): 230 ± 30 nM |
| B2 |  | 230 ± 30 |  |
